Legend:
[1] = molecular target: Human γD crystallin (human) (UniProt P07320); test: cell-based or functional assay
beta amyloid = beta amyloid (UniProt P05067); test: cell-based or functional assay

Human γD crystallin (human), sequence (P07320 2-174 limits assumed): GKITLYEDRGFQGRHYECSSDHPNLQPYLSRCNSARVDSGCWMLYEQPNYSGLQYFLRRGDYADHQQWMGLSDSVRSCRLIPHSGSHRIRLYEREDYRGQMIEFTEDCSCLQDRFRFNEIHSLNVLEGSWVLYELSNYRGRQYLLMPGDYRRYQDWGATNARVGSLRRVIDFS

human αB crystallin (from UniProt P02511 1-175)
Δfluorescence (γD crystallin), Thioflavin T, 72 h at 50° C (no chaperone: 888,803,840) [1]: 1.08e+09 | Δfluorescence (Aβ), Thioflavin T, 72 h at 50° C (no chaperone: 1,324,974,048) (beta amyloid): 3.18e+08
